Data taken from the supplement of paper PMC9112550, “Optimization of the antimicrobial peptide Bac7 by deep mutational scanning” (BMC Biology, 2022).

Tested on: Escherichia coli TOP10
Test: shrunken log2 fold change of peptide-encoding DNA abundance (4.5 h post-induction vs induction); higher = less antimicrobial activity (less host growth inhibition)
Details: time post-induction: 4.5 h; library: site-saturation at positions 5, 18, 19, 20
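Note: peptides expressed intracellularly from a pBAD plasmid library in pooled LB shake-flask culture, induced with 0.3% L-arabinose, DNA abundance read by NGS, three biological replicates, DESeq2 with apeglm shrinkage.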

RRIRNRPPRLPRPRPRPMYCPRP
shrunken log2 fold change: -0.268

RRIRNRPPRLPRPRPRPMYFPRP
shrunken log2 fold change: -0.0737

RRIRNRPPRLPRPRPRPNAKPRP
shrunken log2 fold change: -0.109

RRIRNRPPRLPRPRPRPNAMPRP
shrunken log2 fold change: 0.0458

RRIRNRPPRLPRPRPRPNCCPRP
shrunken log2 fold change: -0.124

RRIRNRPPRLPRPRPRPNCDPRP
shrunken log2 fold change: -0.237

RRIRNRPPRLPRPRPRPNFDPRP
shrunken log2 fold change: 0.215

RRIRNRPPRLPRPRPRPNFIPRP
shrunken log2 fold change: -0.105

RRIRNRPPRLPRPRPRPNGHPRP
shrunken log2 fold change: -0.41

RRIRNRPPRLPRPRPRPNGPPRP
shrunken log2 fold change: -0.015

RRIRNRPPRLPRPRPRPNITPRP
shrunken log2 fold change: -0.693

RRIRNRPPRLPRPRPRPNLQPRP
shrunken log2 fold change: -0.446

RRIRNRPPRLPRPRPRPNPGPRP
shrunken log2 fold change: 0.118

RRIRNRPPRLPRPRPRPNPHPRP
shrunken log2 fold change: -0.116

RRIRNRPPRLPRPRPRPNRSPRP
shrunken log2 fold change: -0.165

RRIRNRPPRLPRPRPRPNSMPRP
shrunken log2 fold change: -0.815

RRIRNRPPRLPRPRPRPNSQPRP
shrunken log2 fold change: -0.265

RRIRNRPPRLPRPRPRPNTIPRP
shrunken log2 fold change: -0.0529

RRIRNRPPRLPRPRPRPNTLPRP
shrunken log2 fold change: -0.788

RRIRNRPPRLPRPRPRPNVSPRP
shrunken log2 fold change: 0.0376

RRIRNRPPRLPRPRPRPNWMPRP
shrunken log2 fold change: -0.199

RRIRNRPPRLPRPRPRPNYWPRP
shrunken log2 fold change: -0.694

RRIRNRPPRLPRPRPRPPAYPRP
shrunken log2 fold change: 0.0856

RRIRNRPPRLPRPRPRPPCSPRP
shrunken log2 fold change: -0.327

RRIRNRPPRLPRPRPRPPERPRP
shrunken log2 fold change: 0.537

RRIRNRPPRLPRPRPRPPGIPRP
shrunken log2 fold change: -0.0351

RRIRNRPPRLPRPRPRPPGMPRP
shrunken log2 fold change: -0.138

RRIRNRPPRLPRPRPRPPGRPRP
shrunken log2 fold change: 0.769

RRIRNRPPRLPRPRPRPPHDPRP
shrunken log2 fold change: 0.114

RRIRNRPPRLPRPRPRPPHGPRP
shrunken log2 fold change: -0.0913

RRIRNRPPRLPRPRPRPPHIPRP
shrunken log2 fold change: -0.311

RRIRNRPPRLPRPRPRPPHKPRP
shrunken log2 fold change: -0.136

RRIRNRPPRLPRPRPRPPIPPRP
shrunken log2 fold change: -0.0646

RRIRNRPPRLPRPRPRPPLPPRP
shrunken log2 fold change: 0.363

RRIRNRPPRLPRPRPRPPMFPRP
shrunken log2 fold change: -0.0155

RRIRNRPPRLPRPRPRPPNLPRP
shrunken log2 fold change: -0.166

RRIRNRPPRLPRPRPRPPPHPRP
shrunken log2 fold change: 0.794

RRIRNRPPRLPRPRPRPPQNPRP
shrunken log2 fold change: -0.0172

RRIRNRPPRLPRPRPRPPRTPRP
shrunken log2 fold change: 0.59

RRIRNRPPRLPRPRPRPPSCPRP
shrunken log2 fold change: -0.134

RRIRNRPPRLPRPRPRPPSGPRP
shrunken log2 fold change: -0.0646

RRIRNRPPRLPRPRPRPPSLPRP
shrunken log2 fold change: -0.0145

RRIRNRPPRLPRPRPRPPSQPRP
shrunken log2 fold change: 0.16

RRIRNRPPRLPRPRPRPPSTPRP
shrunken log2 fold change: 0.0609

RRIRNRPPRLPRPRPRPPSWPRP
shrunken log2 fold change: 0.161

RRIRNRPPRLPRPRPRPPTDPRP
shrunken log2 fold change: 0.992

RRIRNRPPRLPRPRPRPPVIPRP
shrunken log2 fold change: -0.00994

RRIRNRPPRLPRPRPRPPYWPRP
shrunken log2 fold change: 0.0294

RRIRNRPPRLPRPRPRPPYYPRP
shrunken log2 fold change: -0.575

RRIRNRPPRLPRPRPRPQAEPRP
shrunken log2 fold change: -0.155

RRIRNRPPRLPRPRPRPQCDPRP
shrunken log2 fold change: -0.282

RRIRNRPPRLPRPRPRPQDPPRP
shrunken log2 fold change: -0.296

RRIRNRPPRLPRPRPRPQDYPRP
shrunken log2 fold change: 0.087

RRIRNRPPRLPRPRPRPQEMPRP
shrunken log2 fold change: -0.218

RRIRNRPPRLPRPRPRPQGCPRP
shrunken log2 fold change: 0.0942

RRIRNRPPRLPRPRPRPQHKPRP
shrunken log2 fold change: -0.155

RRIRNRPPRLPRPRPRPQKLPRP
shrunken log2 fold change: -0.188

RRIRNRPPRLPRPRPRPQLWPRP
shrunken log2 fold change: -0.252

RRIRNRPPRLPRPRPRPQMKPRP
shrunken log2 fold change: -0.281

RRIRNRPPRLPRPRPRPQMQPRP
shrunken log2 fold change: -0.0154

RRIRNRPPRLPRPRPRPQNYPRP
shrunken log2 fold change: -0.846

RRIRNRPPRLPRPRPRPQRCPRP
shrunken log2 fold change: 0.0227

RRIRNRPPRLPRPRPRPQRQPRP
shrunken log2 fold change: 0.0149

RRIRNRPPRLPRPRPRPQSHPRP
shrunken log2 fold change: -0.68

RRIRNRPPRLPRPRPRPQTIPRP
shrunken log2 fold change: -0.194

RRIRNRPPRLPRPRPRPQTLPRP
shrunken log2 fold change: -0.513

RRIRNRPPRLPRPRPRPQTWPRP
shrunken log2 fold change: -0.183

RRIRNRPPRLPRPRPRPQWLPRP
shrunken log2 fold change: -0.317

RRIRNRPPRLPRPRPRPQYRPRP
shrunken log2 fold change: 0.576

RRIRNRPPRLPRPRPRPRAGPRP
shrunken log2 fold change: 0.25

RRIRNRPPRLPRPRPRPRAYPRP
shrunken log2 fold change: 0.0694

RRIRNRPPRLPRPRPRPRCLPRP
shrunken log2 fold change: -0.157

RRIRNRPPRLPRPRPRPRDQPRP
shrunken log2 fold change: -0.0345

RRIRNRPPRLPRPRPRPRFDPRP
shrunken log2 fold change: 0.0608

RRIRNRPPRLPRPRPRPRFLPRP
shrunken log2 fold change: 0.0562

RRIRNRPPRLPRPRPRPRGCPRP
shrunken log2 fold change: 0.366

RRIRNRPPRLPRPRPRPRIAPRP
shrunken log2 fold change: 0.069

RRIRNRPPRLPRPRPRPRIEPRP
shrunken log2 fold change: -0.117

RRIRNRPPRLPRPRPRPRISPRP
shrunken log2 fold change: -0.408

RRIRNRPPRLPRPRPRPRKGPRP
shrunken log2 fold change: -0.16

RRIRNRPPRLPRPRPRPRKLPRP
shrunken log2 fold change: -0.0702

RRIRNRPPRLPRPRPRPRKNPRP
shrunken log2 fold change: 0.161

RRIRNRPPRLPRPRPRPRKTPRP
shrunken log2 fold change: -0.0384

RRIRNRPPRLPRPRPRPRLRPRP
shrunken log2 fold change: 0.0785

RRIRNRPPRLPRPRPRPRLVPRP
shrunken log2 fold change: 0.114

RRIRNRPPRLPRPRPRPRMIPRP
shrunken log2 fold change: 0.0468

RRIRNRPPRLPRPRPRPRMKPRP
shrunken log2 fold change: -0.0273

RRIRNRPPRLPRPRPRPRNHPRP
shrunken log2 fold change: -0.0174

RRIRNRPPRLPRPRPRPRPTPRP
shrunken log2 fold change: 0.658

RRIRNRPPRLPRPRPRPRQTPRP
shrunken log2 fold change: 0.112

RRIRNRPPRLPRPRPRPRREPRP
shrunken log2 fold change: 0.38

RRIRNRPPRLPRPRPRPRRNPRP
shrunken log2 fold change: -0.03

RRIRNRPPRLPRPRPRPRTEPRP
shrunken log2 fold change: -0.279

RRIRNRPPRLPRPRPRPRVEPRP
shrunken log2 fold change: 0.345

RRIRNRPPRLPRPRPRPRVQPRP
shrunken log2 fold change: -0.00489

RRIRNRPPRLPRPRPRPRWGPRP
shrunken log2 fold change: -0.0125

RRIRNRPPRLPRPRPRPSAFPRP
shrunken log2 fold change: -0.249

RRIRNRPPRLPRPRPRPSATPRP
shrunken log2 fold change: -0.0839

RRIRNRPPRLPRPRPRPSCKPRP
shrunken log2 fold change: 0.065

RRIRNRPPRLPRPRPRPSCSPRP
shrunken log2 fold change: -0.384

RRIRNRPPRLPRPRPRPSDCPRP
shrunken log2 fold change: -0.483

RRIRNRPPRLPRPRPRPSESPRP
shrunken log2 fold change: -0.0302

RRIRNRPPRLPRPRPRPSFTPRP
shrunken log2 fold change: -0.255

RRIRNRPPRLPRPRPRPSFYPRP
shrunken log2 fold change: -0.658

RRIRNRPPRLPRPRPRPSGHPRP
shrunken log2 fold change: -0.141

RRIRNRPPRLPRPRPRPSGSPRP
shrunken log2 fold change: -0.0937

RRIRNRPPRLPRPRPRPSHVPRP
shrunken log2 fold change: -0.0765

RRIRNRPPRLPRPRPRPSIIPRP
shrunken log2 fold change: -0.856

RRIRNRPPRLPRPRPRPSKDPRP
shrunken log2 fold change: -0.285

RRIRNRPPRLPRPRPRPSKEPRP
shrunken log2 fold change: -0.0243

RRIRNRPPRLPRPRPRPSPMPRP
shrunken log2 fold change: -0.0245

RRIRNRPPRLPRPRPRPSPNPRP
shrunken log2 fold change: -0.552

RRIRNRPPRLPRPRPRPSQEPRP
shrunken log2 fold change: 0.299

RRIRNRPPRLPRPRPRPSSIPRP
shrunken log2 fold change: -0.0475

RRIRNRPPRLPRPRPRPSSSPRP
shrunken log2 fold change: -0.0202

RRIRNRPPRLPRPRPRPSTQPRP
shrunken log2 fold change: -0.502

RRIRNRPPRLPRPRPRPTCEPRP
shrunken log2 fold change: -0.0176

RRIRNRPPRLPRPRPRPTDQPRP
shrunken log2 fold change: 0.362

RRIRNRPPRLPRPRPRPTECPRP
shrunken log2 fold change: -0.0689

RRIRNRPPRLPRPRPRPTEEPRP
shrunken log2 fold change: -0.00968

RRIRNRPPRLPRPRPRPTFTPRP
shrunken log2 fold change: -0.245

RRIRNRPPRLPRPRPRPTGAPRP
shrunken log2 fold change: 0.256

RRIRNRPPRLPRPRPRPTGGPRP
shrunken log2 fold change: 0.154

RRIRNRPPRLPRPRPRPTGIPRP
shrunken log2 fold change: 0.0288

RRIRNRPPRLPRPRPRPTHMPRP
shrunken log2 fold change: 0.0687

RRIRNRPPRLPRPRPRPTISPRP
shrunken log2 fold change: -0.969

RRIRNRPPRLPRPRPRPTKSPRP
shrunken log2 fold change: 0.141

RRIRNRPPRLPRPRPRPTLCPRP
shrunken log2 fold change: 0.00464

RRIRNRPPRLPRPRPRPTLYPRP
shrunken log2 fold change: -0.3

RRIRNRPPRLPRPRPRPTNFPRP
shrunken log2 fold change: 0.0354

RRIRNRPPRLPRPRPRPTQNPRP
shrunken log2 fold change: 0.332

RRIRNRPPRLPRPRPRPTRAPRP
shrunken log2 fold change: 0.683

RRIRNRPPRLPRPRPRPTRNPRP
shrunken log2 fold change: 0.0941

RRIRNRPPRLPRPRPRPTSLPRP
shrunken log2 fold change: -0.0597

RRIRNRPPRLPRPRPRPTWDPRP
shrunken log2 fold change: -0.0897

RRIRNRPPRLPRPRPRPTWHPRP
shrunken log2 fold change: 0.0157

RRIRNRPPRLPRPRPRPTWMPRP
shrunken log2 fold change: -0.155

RRIRNRPPRLPRPRPRPTWPPRP
shrunken log2 fold change: 0.77

RRIRNRPPRLPRPRPRPTYVPRP
shrunken log2 fold change: -0.143

RRIRNRPPRLPRPRPRPVAHPRP
shrunken log2 fold change: -0.0475

RRIRNRPPRLPRPRPRPVAPPRP
shrunken log2 fold change: 0.153

RRIRNRPPRLPRPRPRPVDDPRP
shrunken log2 fold change: 0.0318

RRIRNRPPRLPRPRPRPVDLPRP
shrunken log2 fold change: -0.21

RRIRNRPPRLPRPRPRPVFEPRP
shrunken log2 fold change: 0.07

RRIRNRPPRLPRPRPRPVFRPRP
shrunken log2 fold change: -0.165

RRIRNRPPRLPRPRPRPVHVPRP
shrunken log2 fold change: 0.0303

RRIRNRPPRLPRPRPRPVIHPRP
shrunken log2 fold change: -0.0797

RRIRNRPPRLPRPRPRPVIWPRP
shrunken log2 fold change: -0.112

RRIRNRPPRLPRPRPRPVKLPRP
shrunken log2 fold change: 0.032

RRIRNRPPRLPRPRPRPVKRPRP
shrunken log2 fold change: 0.0962
